Active and inactive are the calls of the source. No cut-off for these calls is given here.
Experiments:
Sindbis virus = test: Antiviral activity against SINV infected african green monkey Vero cells assessed as inhibition of virus induced cytopathic effect at 100 uM measured after 48 hrs by microscopic imaging analysis; type: functional, organism-based
[1] = tested on: COc1ccccc1/C=C/C(=O)Nc1ccccc1; test: (§1) Binding affinity to CHIKV nsP2 assessed as Km by measuring fluorescence by multimode microplate reader; conditions: Chikungunya virus
[2] = tested on: O=C(/C=C/c1ccc(Br)cc1)Nc1ccccc1; test: as §1; conditions: Chikungunya virus
[3] = tested on: O=C(/C=C/c1ccc(C(F)(F)F)cc1)Nc1ccccc1; test: as §1; conditions: Chikungunya virus
[4] = tested on: O=C(/C=C/c1ccc(Cl)cc1Cl)Nc1ccccc1; test: as §1; conditions: Chikungunya virus
[5] = tested on: COc1ccccc1/C=C/C(=O)Nc1ccccc1; test: (§2) Binding affinity to CHIKV nsP2 assessed as Vmax (at I = 0) by measuring fluorescence by Lineweaver-Burk plot; conditions: Chikungunya virus
[6] = tested on: O=C(/C=C/c1ccc(Br)cc1)Nc1ccccc1; test: as §2; conditions: Chikungunya virus
[7] = tested on: O=C(/C=C/c1ccc(C(F)(F)F)cc1)Nc1ccccc1; test: as §2; conditions: Chikungunya virus
[8] = tested on: O=C(/C=C/c1ccc(Cl)cc1Cl)Nc1ccccc1; test: as §2; conditions: Chikungunya virus
[9] = tested on: COc1ccccc1/C=C/C(=O)Nc1ccccc1; test: (§3) Binding affinity to CHIKV nsP2 assessed as Vmax (at tested concentration) by measuring fluorescence by Lineweaver-Burk plot; conditions: Chikungunya virus
[10] = tested on: O=C(/C=C/c1ccc(Br)cc1)Nc1ccccc1; test: as §3; conditions: Chikungunya virus
[11] = tested on: O=C(/C=C/c1ccc(C(F)(F)F)cc1)Nc1ccccc1; test: as §3; conditions: Chikungunya virus
[12] = tested on: O=C(/C=C/c1ccc(Cl)cc1Cl)Nc1ccccc1; test: as §3; conditions: Chikungunya virus

COc1ccccc1/C=C/C(=O)Nc1ccccc1
Activity (Sindbis virus): Active

O=C(/C=C/c1ccc(Br)cc1)Nc1ccccc1
Activity (Sindbis virus): Active

O=C(/C=C/c1ccc(C(F)(F)F)cc1)Nc1ccccc1
Activity (Sindbis virus): Active

O=C(/C=C/c1ccc(Cl)cc1Cl)Nc1ccccc1
Activity (Sindbis virus): Active

Polyprotein P1234 (Chikungunya virus (strain S27-African prototype) (CHIKV)), Q8JUX6
Km [1]: 4.9 µM
Km [2]: 5.4 µM
Km [3]: 9.7 µM
Km [4]: 3.5 µM
Vmax [5]: 0.76
Vmax [6]: 0.73
Vmax [7]: 1.57
Vmax [8]: 0.84
Vmax [9]: 0.71
Vmax [10]: 0.87
Vmax [11]: 1.58
Vmax [12]: 0.83
